{"source": "patent US20060053496A1", "about": "(UNIVERSITY OF NORTH CAROLINA AT CHAPEL HILL, published 2006)", "binders": {"B1": {"name": "HA-IRAK1 (enzyme, human, UniProt P51617 1-712, looked up)", "chain": "MAGGPGPGEPAAPGAQHFLYEVPPWVMCRFYKVMDALEPADWCQFAALIVRDQTELRLCERSGQRTASVLWPWINRNARVADLVHILTHLQLLRARDIITAWHPPAPLPSPGTTAPRPSSIPAPAEAEAWSPRKLPSSASTFLSPAFPGSQTHSGPELGLVPSPASLWPPPPSPAPSSTKPGPESSVSLLQGARPFPFCWPLCEISRGTHNFSEELKIGEGGFGCVYRAVMRNTVYAVKRLKENADLEWTAVKQSFLTEVEQLSRFRHPNIVDFAGYCAQNGFYCLVYGFLPNGSLEDRLHCQTQACPPLSWPQRLDILLGTARAIQFLHQDSPSLIHGDIKSSNVLLDERLTPKLGDFGLARFSRFAGSSPSQSSMVARTQTVRGTLAYLPEEYIKTGRLAVDTDTFSFGVVVLETLAGQRAVKTHGARTKYLKDLVEEEAEEAGVALRSTQSTLQAGLAADAWAAPIAMQIYKKHLDPRPGPCPPELGLGLGQLACCCLHRRAKRRPPMTQVYERLEKLQAVVAGVPGHSEAASCIPPSPQENSYVSSTGRAHSGAAPWQPLAAPSGASAQAAEQLQRGPNQPVESDESLGGLSAALRSWHLTPSCPLDPAPLREAGCPQGDTAGESSWGSGPGSRPTAVEGLALGSSASSSSEPPQIIINPARQKMVQKLALYEDGALDSLQLLSSSSLPGLGLEQDRQGPEESDEFQS", "notes": "not shown: double 5' (N-terminal) HA tag"}}, "target": "T1, FLAG-tagged Monarch-1 (human, UniProt P59046 1-1061)", "T1 construct": "Expressed in transfected 293T cells and immunoprecipitated from lysate with anti-FLAG M2-agarose; also called FLAG-Monarch-1; Caterpiller 19.3; not shown: N-terminal FLAG tag added by PCR", "T1 sequence": "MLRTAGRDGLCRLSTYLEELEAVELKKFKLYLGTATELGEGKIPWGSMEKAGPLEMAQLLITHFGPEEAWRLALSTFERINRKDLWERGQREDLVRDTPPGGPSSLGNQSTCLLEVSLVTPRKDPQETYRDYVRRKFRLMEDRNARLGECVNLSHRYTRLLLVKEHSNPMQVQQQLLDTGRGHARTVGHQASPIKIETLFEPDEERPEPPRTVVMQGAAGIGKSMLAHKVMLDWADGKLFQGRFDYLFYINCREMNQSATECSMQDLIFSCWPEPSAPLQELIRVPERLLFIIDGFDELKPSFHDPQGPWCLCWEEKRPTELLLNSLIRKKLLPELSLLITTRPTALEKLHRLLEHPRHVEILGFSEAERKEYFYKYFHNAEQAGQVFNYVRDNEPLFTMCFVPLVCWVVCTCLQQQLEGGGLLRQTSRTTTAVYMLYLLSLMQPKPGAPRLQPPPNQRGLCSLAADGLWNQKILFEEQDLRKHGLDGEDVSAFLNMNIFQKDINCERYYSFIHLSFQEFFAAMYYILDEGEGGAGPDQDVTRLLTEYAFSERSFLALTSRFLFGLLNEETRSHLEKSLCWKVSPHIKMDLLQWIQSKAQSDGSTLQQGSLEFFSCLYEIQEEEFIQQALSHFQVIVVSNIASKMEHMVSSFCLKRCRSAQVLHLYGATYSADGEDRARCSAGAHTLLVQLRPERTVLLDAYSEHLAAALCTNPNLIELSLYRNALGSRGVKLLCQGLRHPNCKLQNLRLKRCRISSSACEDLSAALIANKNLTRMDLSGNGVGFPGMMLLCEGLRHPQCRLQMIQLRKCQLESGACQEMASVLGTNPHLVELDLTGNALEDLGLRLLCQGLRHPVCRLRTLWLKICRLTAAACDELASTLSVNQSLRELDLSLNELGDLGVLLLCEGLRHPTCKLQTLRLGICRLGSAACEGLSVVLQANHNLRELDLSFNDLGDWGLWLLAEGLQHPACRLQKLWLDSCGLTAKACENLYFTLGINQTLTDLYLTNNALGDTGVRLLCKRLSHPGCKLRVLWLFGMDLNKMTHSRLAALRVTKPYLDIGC", "experiment": "co-immunoprecipitation from transfected 293T cells (anti-FLAG M2-agarose IP, anti-HA western blot)", "description": "Transfections and Immunoprecipitations. 2.5 million 293T cells were seeded in 10-cm cell culture plates. Eighteen to twenty-four hours later, 3 μg of each of the indicated plasmids was transfected using FUGENE6™ (Roche, Indianapolis, Ind.) at a 3:1 FUGENE6™ to DNA ratio and the cells were incubated an additional 18 to 24 hours. Cells were lysed in 0.5% NP-40, 150 mM NaCl, 50 mM Tris pH 8.0, 160 mM EDTA, 50 mM NaF, 10 mM sodium phosphate supplemented with protease inhibitor cocktail (Roche, Indianapolis, Ind.). Nuclei were removed and the resulting supernatant was pre-cleared with mouse IgG-conjugated agarose (Sigma, St. Louis) for 1 hour. FLAG®-tagged proteins were subsequently immunoprecipitated overnight with 35 μl M2-agarose equilibrated in lysis buffer. Beads were washed four times in lysis buffer and proteins eluted in sample buffer (20% Glycerol, 4% SDS, 130 mM Tris pH 6.8, 20 mM DTT) for western blot analysis.\nMonarch-1 Associates with TRAF6 but not MyD88 or IRAK1. In addition to the proteins identified by MALDI-MS, 293T cells were transfected with Monarch-1 cDNA and one of the following: HA-MyD88, HA-TRAF6, or HA-IRAK1. Twenty-four hours later the cells were lysed and Monarch-1-containing protein complexes were immunoprecipitated with anti-FLAG® M2-agarose beads overnight. […]", "data": [{"binder": "B1", "values": [{"measurement": "binding result", "result": "no binding"}]}]}
